{"source": "paper PMC3257528", "about": "(The Journal of Cell Biology, 2011)", "molecules": {"B1": {"name": "ATL2 (6His-tagged cytoplasmic / soluble domain, ATL2 1–467) (Homo sapiens) (protein)", "chain": "MAEGDEAARGQQPHQGLWRRRRTSDPSAAVNHVSSTTSLGENYEDDDLVNSDEVMKKPCPVQIVLAHEDDHNFELDEEALEQILLQEHIRDLNIVVVSVAGAFRKGKSFLLDFMLRYMYNKDSQSWIGGNNEPLTGFTWRGGCERETTGIQVWNEVFVIDRPNGTKVAVLLMDTQGAFDSQSTIKDCATVFALSTMTSSVQVYNLSQNIQEDDLQHLQLFTEYGRLAMEEIYQKPFQTLMFLIRDWSYPYEHSYGLEGGKQFLEKRLQVKQNQHEELQNVRKHIHNCFSNLGCFLLPHPGLKVATNPSFDGRLKDIDEDFKRELRNLVPLLLAPENLVEKEISGSKVTCRDLVEYFKAYIKIYQGEELPHPKSMLQATAEANNLAAVAGARDTYCKSMEQVCGGDKPYIAPSDLERKHLDLKEVAIKQFRSVKKMGGDEFCRRYQDQLEAEIEETYANFIKHNDGKN"}, "B2": {"name": "ATL2 (6His-tagged cytoplasmic / soluble domain, ATL2 1–467) (Homo sapiens; E380R/K372E) (protein)", "chain": "B1 chain with K372E, E380R"}}, "key": {"[1]": {"biological_target": "ATL2 (6His-tagged cytoplasmic / soluble domain, ATL2 1–467) (Homo sapiens, UniProt Q8NHH9)", "test": "SEC dimer shift", "format": "binding", "conditions": "2 mM GMPPNP (SEC, cross-linking) or 1 mM (EM); 30 min RT"}, "[2]": {"substrate": "Nc1nc2c(ncn2[C@@H]2O[C@H](COP(=O)(O)OP(=O)(O)OP(=O)(O)O)[C@@H](O)[C@H]2O)c(=O)[nH]1", "test": "malachite green phosphate release, Lineweaver-Burk", "format": "biochemical, Homo sapiens", "conditions": "1 µM enzyme, 5, 10, 20 µM GTP, 37 °C"}}, "note": "Positions count from the first letter of the chain named. Names and notes keep the numbering of the source."}
{"molecule": "Nc1nc2c(ncn2[C@@H]2O[C@H](COP(=O)(O)OP(=O)(O)NP(=O)(O)O)[C@@H](O)[C@H]2O)c(=O)[nH]1", "note": "[GMPPNP, guanosine 5′-[β,γ-imido]triphosphate]", "values": [{"measurement": "SEC dimer shift (Superdex 200), BMOE cross-linking, negative-stain EM", "setting": "[1]", "result": "wild-type ATL2 formed dimers in the presence, but not in the absence, of GMPPNP"}]}
{"molecule": "B1", "values": [{"measurement": "Km", "setting": "[2]", "result": 34, "unit": "µM"}]}
{"molecule": "B2", "values": [{"measurement": "Km", "setting": "[2]", "result": 44, "unit": "µM"}]}
